Data published in publication PMC9887757.
pEC50, pKd: −log10 of the molar value.

Experiments:
[1] = biological target: BKPyV VLP genotype IVc2 (VP1 virus-like particles) (BK polyomavirus) (UniProt P03088); test: ELISA
[2] = biological target: BKPyV VLP genotype II (VP1 virus-like particles) (BK polyomavirus) (UniProt P03088); test: ELISA
[3] = biological target: BKPyV VLP genotype Ia (VP1 virus-like particles) (BK polyomavirus) (UniProt P03088); test: ELISA
[4] = biological target: BKPyV VLP genotype III (VP1 virus-like particles) (BK polyomavirus) (UniProt P03088); test: ELISA
[5] = biological target: BKPyV VLP genotype IVc2 (VP1 virus-like particles) (BK polyomavirus) (UniProt P03088); test: SPR; avidity
[6] = biological target: BKPyV VLP genotype II (VP1 virus-like particles) (BK polyomavirus) (UniProt P03088); test: SPR; avidity
[7] = biological target: BKPyV VLP genotype Ia (VP1 virus-like particles) (BK polyomavirus) (UniProt P03088); test: SPR; avidity
[8] = biological target: BKPyV VLP genotype III (VP1 virus-like particles) (BK polyomavirus) (UniProt P03088); test: SPR; avidity

Sequence of BKPyV VLP genotype IVc2 (VP1 virus-like particles) (BK polyomavirus) (P03088 whole entry, looked up): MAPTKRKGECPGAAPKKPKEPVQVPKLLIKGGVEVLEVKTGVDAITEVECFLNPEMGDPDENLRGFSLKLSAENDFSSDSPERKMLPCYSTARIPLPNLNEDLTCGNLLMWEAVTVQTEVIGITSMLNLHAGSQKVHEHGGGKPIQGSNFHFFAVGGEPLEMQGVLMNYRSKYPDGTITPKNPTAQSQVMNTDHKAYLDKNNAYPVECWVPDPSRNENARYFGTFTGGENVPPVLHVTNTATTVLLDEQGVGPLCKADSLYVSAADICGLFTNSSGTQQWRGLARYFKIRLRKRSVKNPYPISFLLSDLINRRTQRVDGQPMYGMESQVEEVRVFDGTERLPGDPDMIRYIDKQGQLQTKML
Sequence of BKPyV VLP genotype Ia (VP1 virus-like particles) (BK polyomavirus) (P03088 whole entry): as the sequence (P03088 whole entry, looked up) above
Sequence of BKPyV VLP genotype II (VP1 virus-like particles) (BK polyomavirus) (P03088 whole entry, looked up): as above
Sequence of BKPyV VLP genotype III (VP1 virus-like particles) (BK polyomavirus) (P03088 whole entry, looked up): as above

## antibody 120 (clonotype 120, 41F17-like) (from UniProt P01857)
[1]
  pEC50: 9.72
[2]
  pEC50: 9.59
[3]
  pEC50: 9.77
[4]
  pEC50: 9.62
[5]
  pKd: 9.07
[6]
  pKd: 9.80
[7]
  pKd: 9.96
[8]
  pKd: 9.68

## antibody 160 (clonotype 160, 41F17-like) (from UniProt P01857)
[1]
  pEC50: 9.85
[2]
  pEC50: 9.42
[3]
  pEC50: 9.85
[4]
  pEC50: 9.89
[5]
  pKd: 9.57
[6]
  pKd: 9.55
[7]
  pKd: 9.64
[8]
  pKd: 9.77

## antibody 198 (clonotype 198, 41F17-like) (from UniProt P01857)
[1]
  pEC50: 9.37
[2]
  pEC50: 8.85
[3]
  pEC50: 9.27
[4]
  pEC50: 9.05
[5]
  pKd: 9.55
[6]
  pKd: 8.64
[7]
  pKd: 8.79
[8]
  pKd: 9.96
